Data as given in article PMC5835413 (Journal of structural biology, 2017).
Each block holds one binder with its values, some of them ahead of it.

B1: Fluorescent p190-PH: CFP fused to the N-terminus of the p190 PH domain (domain or fragment)
chain: EKNQKWLEILNKIENKTYTKLKNGHVFRKQALMSEERTLLYDGLVYWKTATGRFKDILALLLTDVLLFLQEKDQKYIFAAVDQKPSVISLQKLIAREVANEERGMFLISASSAGPEMYEIHTNSKEERNNWMRRIQQAVESCPEEK

Legend:
[1] = molecular target: Non-tagged Rac1 bound to GTPγS (human, UniProt P63000 1-192); assay: FRET or BRET
[2] = molecular target: Non-tagged RhoA bound to GTPγS (human, UniProt P61586 1-193); assay: ITC
Non-tagged RhoA bound to GTPγS, sequence (P61586 whole entry): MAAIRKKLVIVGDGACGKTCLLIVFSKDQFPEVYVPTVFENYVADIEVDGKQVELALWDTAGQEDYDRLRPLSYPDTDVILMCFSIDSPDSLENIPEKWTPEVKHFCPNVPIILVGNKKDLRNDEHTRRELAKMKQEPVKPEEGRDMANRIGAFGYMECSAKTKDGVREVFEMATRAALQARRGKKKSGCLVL

GST-RhoC = GST-RhoC (human, UniProt P08134 1-193); assay: pull-down
GST-RhoC, sequence (P08134 whole entry): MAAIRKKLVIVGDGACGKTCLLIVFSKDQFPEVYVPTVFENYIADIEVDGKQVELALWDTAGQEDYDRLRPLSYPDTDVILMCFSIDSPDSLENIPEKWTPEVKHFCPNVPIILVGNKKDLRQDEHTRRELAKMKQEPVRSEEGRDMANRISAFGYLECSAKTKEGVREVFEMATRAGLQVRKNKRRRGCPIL

GST-RhoB = GST-RhoB (human, UniProt P62745 1-196); assay: pull-down
GST-RhoB, sequence (P62745 whole entry): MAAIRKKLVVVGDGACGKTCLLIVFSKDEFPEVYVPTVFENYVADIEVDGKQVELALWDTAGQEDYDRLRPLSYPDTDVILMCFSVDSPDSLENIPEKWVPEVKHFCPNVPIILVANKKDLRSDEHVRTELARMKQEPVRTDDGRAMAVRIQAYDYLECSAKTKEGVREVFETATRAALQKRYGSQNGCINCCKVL

GST-Rac3 = GST-Rac3 (human, UniProt P60763 1-192); assay: pull-down
GST-Rac2 = GST-Rac2 (human, UniProt P15153 1-192); assay: pull-down
[3] = molecular target: B1; assay: FRET or BRET

Binder: B1
- Kd [1]: ~20 µM

B3: PH domain of AKAP-Lbc (domain or fragment, UniProt Q12802 2192-2333, looked up)
chain: VASYEKKVRLNEIYTKTDSKSIMRMKSGQMFAKEDLKRKKLVRDGSVFLKNAAGRLKEVQAVLLTDILVFLQEKDQKYIFASLDQKSTVISLKKLIVREVAHEEKGLFLISMGMTDPEMVEVHASSKEERNSWIQIIQDTIN
- Kd [2]: 3100 nM

B6: Non-tagged mutant (E40D/V43S/A56G) RhoA bound to GTPγS (natural protein)
chain: not shown
- fold reduction in affinity against wild-type RhoA [3]: 2 fold

Now from value to binder:

- Kd [2]: ~2000 nM
- binding result (GST-RhoC): binds
- binding result (GST-RhoB): binds
- binding result (GST-Rac3): binds
- binding result (GST-Rac2): binds
B2: PH domain of human p190RhoGEF (residues 1049-1194) with C-terminal His6 (domain or fragment, UniProt Q8N1W1 1049-1194, looked up)
chain: EKNQKWLEILNKIENKTYTKLKNGHVFRKQALMSEERTLLYDGLVYWKTATGRFKDILALLLTDVLLFLQEKDQKYIFAAVDQKPSVISLQKLIAREVANEERGMFLISASSAGPEMYEIHTNSKEERNNWMRRIQQAVESCPEEK

- Kd [2]: 13000 nM
B4: PH domain of p114RhoGEF (domain or fragment, UniProt Q6P9R4 723-825, looked up)
chain: QLHLEGALCWKSTSGRLKDVLAVLLTDVLLLLQEKDQKYVFASVDSKPPVISLQKLIVREVANEEKAMFLISASMQGPEMYEMYTSSKEDRNIWMAHIRRAVE

- Kd [2]: 1200 nM
B5: PH domain of human PDZRhoGEF (residues 927-1085) with C-terminal His6 (domain or fragment, UniProt O15085 927-1085, looked up)
chain: TENRHRLEGYQKRLDATALERASNPLAAEFKSLDLTTRKMIHEGPLTWRISKDKTLDLHVLLLEDLLVLLQKQDEKLLLKCHSKTAVGSSDSKQTFSPVLKLNAVLIRSVATDKRAFFIICTSKLGPPQIYELVALTSSDKNTWMELLEEAVRNATRHP
